We go through one substance from PMC4259358, “Functional Characterization of Nuclear Localization and Export Signals in Hepatitis C Virus Proteins and Their Role in the Membranous Web” (PLoS ONE, 2014).

What all share (experiment): ELISA; plates coated with synthetic peptide (10 µg/ml, carbonate buffer pH 9.6); increasing concentrations of recombinant NTF, 2 h, room temperature; anti-HIS detection; apparent Kd
For assay [1], the target named is SV40 NLS synthetic peptide (fused to penetratin) (SV40 | not stated).
The target of assay [2] is NS3 NLS 2 synthetic peptide (fused to penetratin) (hepatitis C virus | not stated).
The target of assay [3] is Core NLS 4 synthetic peptide (fused to penetratin) (hepatitis C virus | not stated).
Assay [4] has as its target NS5A NLS synthetic peptide (fused to penetratin) (hepatitis C virus | not stated).

“recombinant IPOA5 (importin α5/kap α1), P52294 1-538 (natural protein; other documents disagree on this pair)”: the Kd in assay [1] turned out to be 27.1 nM; in assay [2], 36.6 nM; in assay [3], 518 nM; in assay [4], 7630 nM.
